Measured values from patent publication US10434170B2, “Immunoregulatory vaccine” (S-TARGET THERAPEUTICS GMBH, priority 2012, dated 2019).
Where no end group is shown, it is not given here. [ ]: non-standard residue; d: D form. pGlu = O=C1CC[C@@H](C(=O)O)N1

Tests used:
[1] = system: autologous little gastrin (G17RM); experiment: Cynomolgus monkeys immunized, serum IgG (MSD multiplex ELISA) against autologous little gastrin; format: in vivo, rhesus and cynomolgus monkey; conditions: 6 Cynomolgus monkeys, immunized d0, d14, d28; serum d0-d56
Description: Time curve IgG anti G17 induction, after three injections with the vaccine (TYG100_2RM) on d0, d14 and d28. • A significant IgG induction was seen against the ScFV-coil1 and G17RM and G17H. No response was seen against a control peptide of similar molecular weight or when the animals were immunized with G17RM_2 without the presence of warhead.
6 Cynomolgus monkeys were immunized with TYG100_2RM and 6 were immunized with G17RM_2-coil on d0, d14 and d28. On d0, d14, d28, 42 and d56 serum was analyzed for the presence of IgG antibodies against autologous little gastrin (G17RM), little gastrin from humans (G17H), an irrelevant control peptide of similar MW as gastrin (control peptide) or against warhead (ScFV-coil1) using the multiplex ELISA system of Meso Scale Discovery (MSD) according to the MSD manual. […] The response against G17RM after three immunizations was 75% of the response against ScFV-coil1. This is remarkable since G17RM is a 100% autologous protein of only ˜1.2 kDa whereas ScFV-coil1 is a 100% allogeneic protein of >30 kDa. The anti G17RM antibodies cross reacted strongly with G17H. There was no response against G17RM when the G17RM_2-coil peptide was used without the warhead.

G17RM = experiment: Balb/c mice immunized with TYG100 vaccine, serum IgG titre against G17RM; format: in vivo, mouse; conditions: peptide immunized without the warhead, Example 14
Method: (§1) 6 Balb/c Mice were immunized 3 times on day 0, day 14 and day 35 with TYG100_1RM or G17_1RM (without warhead) containing rhesus monkey G17 (58.4 μg/shot in 0.5 ml). Two weeks after last immunization, serum was taken and analyzed for the presence of IgG antibodies against G17RM, G17H and G17M (=G17 from the mouse)
as §1, with “TYG100_2RM” for “TYG100_1RM or G17_1RM (without warhead)”, “containing the first 13 immuno acids of” for “containing”, “(66.8” for “(58.4”

[2] = system: PBMC of Der p1 sensitized normal donors; experiment: Stimulation of human PBMC with immunogen 5-12, IL-10 and IFNg ELISA (Example 10); format: cell-based; conditions: 24 h, 5, 1 or 0.5 μg/ml vs 3 μg/ml Der p1
Method: PBMCs of healthy human donors were cultured for 24 h in triplicate with Der p1 or immunogen 5. Supernatants were harvested and assayed for IL-10 and […] levels (each indicated as pg/ml; BDL=below detection limit) • Human T cells respond equally well to immunogen 5 as to Der p1, as measured by IL-10 and IFNg induction.
PBMC (100.000/well) of Der p1 sensitized normal donors were cultured in triplicate with medium, 3 μg/ml Der p1 or 5, 1 or 0.5 μg/ml immunogen 5-12 (Immo5-12) at 37° C./5% CO2 for 24 h. Supernatants were assayed in duplicate for IL-10 and IFNg levels using a commercially-available ELISA kits (eBioscience) in accordance with the manufacturer's instructions.

mAb IV.3 = experiment: Mice immunized with ScFV-1-coil or warhead, serum IgG1 and IgG2a ELISA against mAb IV.3; format: in vivo, mouse; conditions: s.c. 2× 35 μg d0, d14, on Alum or in PBS, sera day 28
Method: (§2) 24 mice (6/group) were immunized s.c. 2× with 35 μg in 150 μl ScFV-1-coil or with warhead (ScFV-1-coil-M362) either formulated on Alum or diluted in PBS. Immunizations were done on d0, and d14, sera were taken on d0 (before immunization) and d28 and analyzed for IgG1 and IgG2a against ScFV-1-coil (indicated as ScFV) and mAb IV.3 by standard ELISA.

ScFV-1-coil = experiment: Mice immunized with ScFV-1-coil or warhead, serum IgG1 and IgG2a ELISA against ScFV-1-coil; format: in vivo; conditions: s.c. 2× 35 μg d0, d14, on Alum or in PBS, sera day 28
Method: as §2

[3] = system: PBMC of Der p1 sensitized rhesus monkeys; experiment: Warhead mediated enhanced antigen presentation, PBMC proliferation (Example 7); format: cell-based, rhesus monkeys (macaca mulatta)
Method: […] proliferation (assayed by the incorporation of [^3H]-thymidine) of Rhesus monkey (macaca mulatta) T cells after pre incubation for 30 ‘on ice with respectively warhead and Der p1 or warhead and immunogen 3. After each pre-incubation the cells were washed. (bdl=below detection limit). • Only when the immunogen could interact with the warhead through its coil (immunogen3) T cell proliferation in a dose dependent fashion could be seen. […] As positive control Der p1 is shown to be reactive after overnight incubation (without washing). • Warhead mediated antigen uptake is more efficient than uptake through pinocytosis
PBMC (100.000/well) of Der p1 sensitized rhesus monkeys (macaca mulatta) were preincubated (30 min on ice) with 1 μg/ml of warhead ScFV and washed 3 times with PBS or preincubated with PBS only and washed three times. Subsequently these cells incubated (30 min on ice) with different concentrations of Immunogen 3 or Der p1 at 3 μg/ml and washed 3 times with PBS after which the cells were culture at 37° C./5% CO2 in the presence of 20 U/ml IL-2 for 48 hours. As a positive control PBMCs (without warhead preincubation) were incubated with 3 μg/ml Der Pb without washing and cultured at 37° C./5% CO2 in the presence of 20 U/ml IL-2. Proliferation was assayed by the incorporation of [^3H]-thymidine (0.5 μCi/well) during the final 18 hrs of a 2-day culture. Cells were harvested for β-scintillation counting (Topcount NXT, Packard, Ramsey, Minn., USA). Results are shown as counts per minute.

[4] = system: PBMC of Der p1 sensitized rhesus monkeys; experiment: Proliferation ([3H]-thymidine) of PBMC of Der p1 sensitized rhesus monkeys (Example 6); format: cell-based, rhesus monkeys (macaca mulatta); conditions: 3 and 5 μg/ml immunogen 3 vs Der p1, 2-day culture, 20 U/ml IL-2
Method: (§3) PBMCs from Der p1 sensitized rhesus monkeys (macaca mulatta) were cultured in triplicate with Der p1 or immunogen 3. Proliferation was assayed by the incorporation of [^3H]-thymidine. Results are shown as counts per minute.
(§4) PBMC (100.000/well) of Der p1 sensitized rhesus monkeys (macaca mulatta) were cultured in triplicate with medium, 3 Der p1 or 3 and 5 μg/ml immunogen 3 at 37° C./5% CO2. in the presence of 20 U/ml IL-2. Proliferation was assayed by the incorporation of [^3H]-thymidine (0.5 μCi/well) during the final 18 hrs of a 2-day culture. Cells were harvested for β-scintillation counting (Topcount NXT, Packard, Ramsey, Minn., USA). Results are shown as counts per minute. In addition from parallel cultures, supernatants were assayed in duplicate for IL-10 and GM-CSF levels using a commercially-available ELISA kit (U-Cytech, Utrecht, The Netherlands) in accordance with the manufacturer's instructions.

[5] = system: PBMC of Der p1 sensitized rhesus monkeys; experiment: IL-10 and GM-CSF ELISA in supernatants of PBMC of Der p1 sensitized rhesus monkeys (Example 6); format: cell-based, rhesus monkeys (macaca mulatta); conditions: 3 and 5 μg/ml immunogen 3 vs Der p1, parallel cultures
Method: as §3, §4

[6] = PBMC preincubated with 1 μg/ml warhead ScFV, washed, incubated 30 min on ice with antigen, cultured 48 hours

## G17RM_2-coil: SEQ ID 103: two rhesus monkey gastrin peptides of SEQ ID 99, branched linker and pepK coil (EGPWMEEEEAAYGGGK(EGPWMEEEEAAYGGG)GGSGGKVSALKEKVSALKEKVSALKEKVSALKEKVSALKE)
[1]
  IgG response to G17RM: no response

## [pGlu]GPWMEEEEAAYGGGSGGKVSALKEKVSALKEKVSALKEKVSALKEKVSALKE [G17-peptide]
G17RM
  response against G17: no response

B1: immunogen 5: SEQ ID 30/75: ~29 T cell epitopes of ten Der p allergens with His tag, linkers and pepK coil (protein)
chain 1: GVLACAIATHAKIREQERLVKLETVKKSLEQEVRTLHVRIEEVEANALAGGDLRQMRTVTPIRMQGGCGSCWEAHEQQIRIMTTKLKEAEARQQYDIKYTWNVPKIAVNIVGYSNAQGVDYWIVRNSWDTNWYHNPHFIGNRSVITHLMEDLKGELDMRNIQVRGLKQMKRVGDANVKSEDDAFRHYDGRTIIQRDNGYQPNYLDEYWILTAAHCVDGQTVSKLIRSKVLGEKISYYRYVAREQSCRRPNAQRFGISNYCVVVTVKVMGDDELHTYFNVNYTMHYYLNNGATRDILDEYWILTAAHCVAGQTASKLSIRYNSLKHSLFKYRPFKVNELNLEGEFGRELQHKFRLMRNSQMEVEEGGGSHHHHHHGGGSCGGKVSALKEKVSALKEKVSALKEKVSALKEKVSALKE
chain 2: B1 chain 1
modifications: Immunogen-coil
[2]
  IFNg induction, response compared with Der p1: equally well
  IL-10 induction, response compared with Der p1: equally well

B2: warhead (conjugate)
scFv: EVQLQQSGPELKKPGETVKISCKASGYTFTNYGMNWVKQAPGKGLKWMGWLNTYTGESIYPDDFKGRFAFSSETSASTAYLQINNLKNEDMATYFCARGDYGYDDPLDYWGQGTSVTVSSGGGGSGGGGSGGGGSDIVMTQAAPSVPVTPGESVSISCRSSKSLLHTNGNTYLHWFLQRPGQSPQLLIYRMSVLASGVPDRFSGSGSGTAFTLSISRVEAEDVGVFYCMQHLEYPLTFGAGTKLELKGSISAWSHPQFEKGPEVSALEKEVSALEKEVSALEKEVSALEKEVSALEK
mAb IV.3
  IgG1 response to mAb IV.3: strong
  IgG2a response to mAb IV.3: strong
ScFV-1-coil
  IgG1 response to ScFV-1-coil: strong
  IgG2a response to ScFV-1-coil: strong

B3: ScFV-1-coil: SEQ ID 70: ScFV derived from anti-CD32a mAb IV.3 with StrepTag II and pepE coil (protein)
scFv: B2 scFv
modifications: ScFV-coil
ScFV-1-coil
  IgG1 response to ScFV-1-coil: only in the presence of Alum
  IgG2a response to ScFV-1-coil: no IgG2a response

B4: immunogen 3: SEQ ID 23/74: Der P1 and Der P2 T cell epitopes with His tag, linker and pepK coil (protein)
chain 1: HHHHHHYYRYVAREQSCRRPNAQRFGISNYCQIYPPNVNKIREALAQTHSAIAVDLRQMRTVTPIRMQGGCGSCWAFSGVAATESAYLQQYDIKYTWNVPKIAPKSENVVVTVKVMGDDGVLACAIATHAKIRDDAFRHYDGRTIIQRDNGYQPNYHAVNIVGYSNAQGVDYWIVRNSWDTNWHEIKKVLVPGCHGSEPCIIHRGKPFGGGSGGGSCGGKVSALKEKVSALKEKVSALKEKVSALKEKVSALKE
chain 2: HHHHHHYYRYVAREQSCRRPNAQRFGISNYCQIYPPNVNKIREALAQTHSAIAVDLRQMRTVTPIRMQGGCGSCWAFSGVAATESAYLQQYDIKYTWNVPKIAPKSENVVVTVKVMGDDGVLACAIATHAKIRDDAFRHYDGRTIIQRDNGYQPNYHAVNIVGYSNAQGVDYWIVRNSWDTNWHEIKKVLVPGCHGSEPCIIHRGKPFGGGSGGGSGGKVSALKEKVSALKEKVSALKEKVSALKEKVSALKE
modifications: Immunogen-coil
[3]; [6]
  proliferation of PBMC: dose dependent stimulation
[3]; after warhead ScFV preincubation, positive control = PBMC cultured 48 h with 3 μg/ml Der p1 without washing
  stimulation relative to positive control: even higher than the positive control
[3]; preincubated immunogen in the absence of warhead (data not shown)
  proliferation of PBMC: did not lead to proliferation
[4]
  proliferation, response compared with Der p1: non-significant difference
[5]
  cytokine production (IL-10 and GM-CSF), response compared with Der p1: non-significant difference

B5: Der p1: house dust mite allergen used as comparator antigen (protein)
chain: TNACSINGNAPAEIDLRQMRTVTPIRMQGGCGSCWAFSGVAATESAYLAYRNQSLDLAEQELVDCASQHGCHGDTIPRGIEYIQHNGVVQESYYRYVAREQSCRRPNAQRFGISNYCQIYPPNVNKIREALAQTHSAIAVIIGIKDLDAFRHYDGRTIIQRDNGYQPNYHAVNIVGYSNAQGVDYWIVRNSWDTNWGDNGYGYFAANIDLMMIEEYPYVVIL
[3]; [6]
  proliferation of PBMC: did not lead to proliferation
